Results taken from patent US9618511B2, “Methods and compositions for treating alzheimer's disease” (Eleanore Bennett Charitable Trust #2, priority 2008, dated 2017).
Entries after “also recorded” stand apart in the source; their conditions may differ.

Columns and labels:
Rictor-stimulated Akt1 = target: T1, Rictor-stimulated Akt1; assay: Rictor-dependent Akt1 activity, in vitro kinase assay; format: biochemical, mouse (C2C12 myotubes); conditions: 10 μM
T1 construct: endogenous in cells; host or cells: Rictor from insulin-treated C2C12 myotubes
From the text: Another kinase, termed SGK (serum/glucocorticoid regulated kinase), is also activated by PDK. Similar to Akt, SGK has a PH domain and phosphorylates GSK-3 α/β (Kobayashi, T., Deak, M., Morrice, N., and Cohen, P., 1999, Characterization of the structure and regulation of two novel isoforms of serum- and glucocorticoid-induced protein kinase, Biochem J 344 Pt 1:189-197, and Tessier, M., and Woodgett, J. R., 2006, Serum and glucocorticoid-regulated protein kinases: variations on a theme, J Cell Biochem 98:1391-1407). If Aβ inhibits PH-mediated activations of Akt independent of PIP3, it is predicted to affect this mechanism too. Indeed, in FIG. 7D, ADDL-containing Aβ preparations inhibited PDK-stimulated SGK activity (lane 7 vs. 6 and 5). […] This enhanced activity was not however, interrupted by Aβ (10 μM, lane 4 vs. 3). Lastly, another kinase that converges to phosphorylate GSK, PKA (Grimes, C. A., and Jope, R. S., 2001, The multifaceted roles of glycogen synthase kinase 3beta in cellular signaling, Prog Neurobiol 65:391-426; Li, M., Wang, X., Meintzer, M. K., Laessig, T., Birnbaum, M. J., and Heidenreich, K. A., 2000, Cyclic AMP promotes neuronal survival by phosphorylation of glycogen synthase kinase 3beta, Mol Cell Biol 20:9356-9363), was tested. […] Thus, the mechanism of Aβ inhibition of Akt activation is specific to PDK-like kinases. […]

[1] = system: PI3K (p85) from NIH/3T3 cells; assay: PI3K activity assay (conversion of PI to PI3P, TLC); format: biochemical
Procedure: PI3K was immunoprecipitated (IP) from the NIH/3T3 cell lysates with rabbit anti-p85 subunit (Upstate). The IPs were washed twice with cold phosphate buffered saline (PBS) buffer containing 0.5% NP-40 and 0.1 mM Na3VO4, and then twice with THE buffer [Tris.HCl pH7.4 20 mM, NaCl 100 mM, EGTA 0.5 mM]. PI3K activity was determined by incubating the beads with kinase buffer [6.5 mM HEPES (pH 7.4), 10 mM MgCl2] with 50 μM ATP, 2 μCi [y-32P]ATP, 4 μg of 3-sn-Phosphatidyl-L-serine (PS) and 2 μg of D-myo-Phosphatidylinositol (PtdIns; PI) (Echelon, Salt Lake City, Utah) for 10 min at room temperature. The reactions were stopped by adding 50 μl of 4N HCl. Phospholipids were extracted using 100 μl of CHCl3/methanol (1:1). […] The conversion of PI to PI3P was detected and quantified using a Storm Phosphorimager (GE Healthcare).
Phosphatidylinositol (PI), including phosphatidylserine (PS) as a carrier, was used as a substrate for PI3K activity assay. [y-32P]ATP and kinase buffer were added to the IP and lipid mixture at room temperature to start the reaction. Phospholipids were extracted in 100 μl of CHCl3/methanol and separated by TLC. Bar charts give quantified results using a phosphorimager.

pre-activated Akt1 = target: T2, pre-activated Akt1 (Mus musculus, UniProt P31750); assay: In vitro kinase assay on pre-activated (insulin-conditioned) Akt1; format: biochemical, mouse (C2C12 myotubes); conditions: 10 μM peptide
T2 construct: Akt1 was immunoprecipitated from control and insulin treated C2C12 myotubes for in vitro kinase assay; endogenous in cells; host or cells: insulin-treated mouse C2C12 myotubes
Procedure: Akt1 was immunoprecipitated (IP) overnight from 100 μg of the human brain sample or from C2C12 myotubes infected with adenovirus encoding Aβ using a 1:100 dilution of goat anti-Akt1 antibody. The following morning, 40 μl of a 50% slurry of protein G-Agarose (PGA) (Roche Applied Science) was added for an additional 1.5 hours. The beads were washed twice with wash buffer [1× phosphate buffered saline (PBS), 0.5% NP-40, 0.1 mM Na3VO4] and twice with kinase buffer [25 mM Tris (pH 7.5), 2 mM DTT, 0.1 mM Na3VO4, 10 mM MgCl2]. ATP (200 μM) and GSK-3 fusion protein (1 μg/50 μl) were added in the presence of kinase buffer, and the final reaction (50 μl) was incubated 30 minutes at 30° C. The reaction was stopped by adding 40 μl of Laemmli buffer. 20 μl of sample was loaded onto a 10% polyacrylamide gel for fractionation and western detection development.
Variably however, the degree of inhibition sometimes exceeded the baseline activity in the absence of PDK. Thus, it is possible that Aβ may have an additional action to deactivate Akt. […] Insulin stimulated Akt activity in extracts made from C2C12myotube cultures (FIG. 9A, 3rd row, lane 2 vs. 1). […]
In FIG. 9B Aβ42 (10 μM) and scrambled Aβ42 had no effect on insulin-conditioned Akt1 activity. Protein phosphatase 2A (PP2A; 5 μg/ml) decreased levels of both p-Akt (Ser473) and Akt activity (p-GSK-3 α/β), quantified by densitometry below.

T1 sequence (P31749 whole entry): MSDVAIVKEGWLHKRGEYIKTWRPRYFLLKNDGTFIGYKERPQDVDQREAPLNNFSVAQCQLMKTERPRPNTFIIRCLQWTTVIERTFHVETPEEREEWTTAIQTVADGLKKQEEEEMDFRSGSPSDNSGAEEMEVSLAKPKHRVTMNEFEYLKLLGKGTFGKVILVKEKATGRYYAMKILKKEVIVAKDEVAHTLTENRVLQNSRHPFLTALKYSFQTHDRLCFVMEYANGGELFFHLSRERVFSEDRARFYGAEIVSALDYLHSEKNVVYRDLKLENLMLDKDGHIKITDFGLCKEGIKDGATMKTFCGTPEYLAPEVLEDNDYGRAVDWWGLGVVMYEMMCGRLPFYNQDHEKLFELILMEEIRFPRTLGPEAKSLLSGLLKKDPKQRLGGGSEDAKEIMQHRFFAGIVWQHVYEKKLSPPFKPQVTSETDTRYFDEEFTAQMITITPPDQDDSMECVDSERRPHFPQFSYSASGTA
T2 sequence (P31750 whole entry): as the sequence (P31749 whole entry) above, with S2N, A50S, T100A, K112R, E117T, K389T, G410N, H415D counted along it

Aβ42: synthetic 42 amino acid β-amyloid peptide, forward sequence, freshly prepared, predominantly monomeric (BioSource)
Rictor-stimulated Akt1 activity (Rictor-stimulated Akt1): no change | PI3K activity ([1]; 10 μM peptide): did not; also recorded: no effect | PI3K activity ([1]; dose-response: Aβ1-42 0.05, 0.5, 5 μM, reverse Aβ42-1 5 μM): no effect | insulin-conditioned Akt1 activity and p-Ser473 levels (pre-activated Akt1): no effect
